The results in this text go back to US7407939B2, “Protein kinase inhibitors comprising ATP mimetics conjugated to peptides or peptidomimetics” (CureGenics Ltd., priority 2001, dated 2008).

Experiment [1] has as its target T1, PKA (Bos taurus, UniProt P00517).
T1 construct: purchased Promega
Nature of the experiment: In vitro PKA kinase activity assay (kemptide / SPA beads).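 For all read-outs here: Cell-free assay of purified PKA catalytic subunit phosphorylating the 7-mer kemptide substrate, run in MOPS buffer with magnesium acetate and BSA, with blank wells lacking enzyme.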 Format: biochemical. Details: % Inhibition PKA: concentration or dose not given beside the values. To be noted: for IC50: Table 10, accurate IC50 curve, read-out: IC50 μM PKA; for IC50 / % Inhibition PKA: peptide moiety alone; for % Inhibition PKA: plate screening; for PKA-kinase Assay 1, % inhibition of kinase activity / PKA-kinase Assay 2, % inhibition of kinase activity / inhibition at 1 µM: 1 μM compound concentration.

Experiment [2] addresses T2, PKB (Homo sapiens, UniProt P31749).
T2 construct: His; HA; made in house
In words: PKB in vitro kinase activity assay (soluble His-HA-PKB / SPA bead screening). Format: biochemical. Details: % Inhibition PKB I / % Inhibition PKB II: concentration or dose not given beside the values. As to conditions: for IC50: Table 10, accurate IC50 curve, read-out: IC50 μM PKB; for IC50 / % Inhibition PKB I / % Inhibition PKB II: peptide moiety alone; for % Inhibition PKB I / % Inhibition PKB II: plate screening; for inhibition at 1 µM / PKB-kinase (spa) Assay 1, % inhibition of kinase activity / PKB-kinase (spa) Assay 2, % inhibition of kinase activity: 1 μM compound concentration.

The mark [3] stands for this setting: Table 3, linear 7-mer peptides, read-out: Activity PKA.
Setting [4] is: Table 3, linear 7-mer peptides, read-out: Activity PKB.
The mark [5] stands for this setting: Table 6, most active compounds from plate TY-60020, read-out: IC50 PKA.
Setting [6] is: Assay 1, read-out: PKB-kinase (spa) Assay 1, % inhibition of kinase activity.
The mark [7] stands for this setting: Assay 2, read-out: PKB-kinase (spa) Assay 2, % inhibition of kinase activity.
[8] abbreviates: Table 6, most active compounds from plate TY-60020, read-out: IC50 PKB.

pIC50: −log10 of the molar value. Like-named read-outs stand apart in the source and are kept apart here. *1 amine or outer side, *2 acyl side, *3 side chain or, on linkers, in order; H or OH if unused. Where a SMILES comes first, the peptide text is derived from it. Where no end group is shown, it is not given here. Side-chain parts run from the residue outwards. [ ]: non-standard residue; d: D form. The star is where a group is joined. X1 = 5‑aminoethylsulfonamide isoquinoline, O=S(=O)(NCCN*)c1cccc2cnccc12; Isoquinoline5sulfonyl = O=S(=O)(c1cccc2cnccc12)*; Ethylenediamine = C(CN[*:2])N[*:1]; hLeu = CC(C)CC[C@H](N)C(=O)O; Nle = CCCC[C@H](N)C(=O)O; Orn = NCCC[C@H](N)C(=O)O; Dab = NCC[C@H](N)C(=O)O; Nva = CCC[C@H](N)C(=O)O; Abu = CC[C@H](N)C(=O)O; Dap = NC[C@H](N)C(=O)O; GlyNH2 = aminoglycine; βAla = NCCC(=O)O

T2 sequence (P31749 whole entry, species assumed): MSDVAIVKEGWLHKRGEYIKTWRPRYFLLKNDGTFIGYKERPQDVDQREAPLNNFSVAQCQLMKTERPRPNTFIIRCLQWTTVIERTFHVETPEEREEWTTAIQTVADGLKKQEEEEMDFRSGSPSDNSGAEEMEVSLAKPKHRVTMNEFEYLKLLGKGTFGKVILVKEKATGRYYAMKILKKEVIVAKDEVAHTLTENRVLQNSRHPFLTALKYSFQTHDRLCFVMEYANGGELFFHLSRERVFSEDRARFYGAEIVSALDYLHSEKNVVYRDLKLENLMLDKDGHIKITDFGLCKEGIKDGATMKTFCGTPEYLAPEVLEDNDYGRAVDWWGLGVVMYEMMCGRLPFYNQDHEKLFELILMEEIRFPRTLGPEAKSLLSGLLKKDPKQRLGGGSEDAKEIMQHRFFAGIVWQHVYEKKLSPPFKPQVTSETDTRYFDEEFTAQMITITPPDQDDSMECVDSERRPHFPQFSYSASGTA

Consider `CC[C@H](NC(=O)[C@H](CO)NC(=O)[C@@H](NC(=O)[C@H](CCCNC(=N)N)NC(=O)[C@@H]1CCCN1C(=O)[C@@H](N)CCCNC(=N)N)C(C)C)C(=O)N[C@@H](Cc1ccccc1)C(N)=O` [TY 60002-61, Arg-Pro-Arg-Val-Ser-Abu-Phe] (H-RPRVS[Abu]F-NH2; N-terminus and C-terminus assumed), for which the figures for the pIC50 in experiment [1] (setting [3]) and in experiment [2] (setting [4]) were less than 4.40 and 5.30, respectively.

In the case of `CC[C@H](NC(=O)[C@H](CO)NC(=O)[C@@H](NC(=O)[C@H](CCCNC(=N)N)NC(=O)[C@@H]1CCCN1C(=O)[C@@H](N)CCCNC(=N)N)[C@@H](C)O)C(=O)N[C@@H](CCC(C)C)C(N)=O` [TY 60002-73, Arg-Pro-Arg-Thr-Ser-Abu-Hol] (H-RPRTS[Abu][hLeu]-NH2; N-terminus and C-terminus assumed), in experiment [1] (setting [3]), the pIC50 is less than 4.40. In addition, in experiment [1], the IC50 amounted to 228 µM and the “% Inhibition PKA” value is 8%. In addition, the pIC50 in experiment [2] (setting [4]) was 5.30. Also, in experiment [2], the IC50 is 34 µM and the “% Inhibition PKB I” value came to 44%.

On to `CC(C)CC[C@H](NC(=O)[C@H](C)NC(=O)[C@H](CO)NC(=O)[C@@H](NC(=O)[C@H](CCCNC(=N)N)NC(=O)[C@@H]1CCCN1C(=O)[C@@H](N)CCCNC(=N)N)[C@@H](C)O)C(N)=O` [TY 60002-50, Arg-Pro-Arg-Thr-Ser-Ala-Hol] (H-RPRTSA[hLeu]-NH2; N-terminus and C-terminus assumed), for which the pIC50 is less than 4.40 in experiment [1] (setting [3]) and 5.30 in experiment [2] (setting [4]).

For `N=C(N)NCCC[C@H](NC(=O)[C@@H]1CCCN1C(=O)[C@@H](N)CCCNC(=N)N)C(=O)N[C@@H](CN)C(=O)N[C@@H](CCC(=O)NCCC(=O)NCCNS(=O)(=O)c1cccc2cnccc12)C(=O)N[C@@H](CCCN)C(=O)N[C@@H](Cc1ccccc1)C(N)=O` [60020-67] (H-RPR[Dap]E([βAla-Ethylenediamine-Isoquinoline5sulfonyl])[Orn]F-NH2; N-terminus assumed), the pIC50 in experiment [1] (setting [5]) is 6.60; in experiment [2] (setting [8]), 5.97. Also, the inhibition at 1 µM in experiment [2] (setting [6]) is 51%; in experiment [2] (setting [7]) it was 68%.

“60020-50: Arg-Pro-Arg-Abu-Glu(Gly-5-aminoethylsulfonamide isoquinoline)-Dab-Hol (RPR[Abu]E([Gly-X1])[Dab][hLeu])”: the “PKA-kinase Assay 1, % inhibition of kinase activity” value (“PKA-kinase Assay 1, % inhibition” below) in experiment [1] (Assay 1) is on record as 97%. The “PKA-kinase Assay 2, % inhibition of kinase activity” value (from here on “PKA-kinase Assay 2, % inhibition”) in experiment [1] (Assay 2) is 97%. Further, in experiment [2] (Assay 1), the “PKB-kinase (spa) Assay 1, % inhibition of kinase activity” value (shortened to “PKB-kinase (spa) Assay 1, % inhibition”) is given as 60%. Besides, in experiment [2] (Assay 2), the “PKB-kinase (spa) Assay 2, % inhibition of kinase activity” value (from here on “PKB-kinase (spa) Assay 2, % inhibition”) was found to be 54%.

Turning to “60020-52: Arg-Pro-Arg-Abu-Glu(Gly-5-aminoethylsulfonamide isoquinoline)-Orn-Hol (RPR[Abu]E([Gly-X1])[Orn][hLeu])”, the “PKA-kinase Assay 1, % inhibition” value in experiment [1] (Assay 1) stood at 92%. Further, the “PKA-kinase Assay 2, % inhibition” value in experiment [1] (Assay 2) worked out at 92%. In experiment [2] (Assay 1), the “PKB-kinase (spa) Assay 1, % inhibition” value was 56%. Also, the “PKB-kinase (spa) Assay 2, % inhibition” value in experiment [2] (Assay 2) was 53%.

As to “60020-1: Arg-Pro-Arg-Dap-Glu(5-aminoethylsulfonamide isoquinoline)-Dab-Phe (RPR[Dap]E(X1)[Dab]F)”, the “PKA-kinase Assay 1, % inhibition” value in experiment [1] (Assay 1) was determined as 98%. In addition, the “PKA-kinase Assay 2, % inhibition” value in experiment [1] (Assay 2) was found to be 99%. In experiment [2] (Assay 1), the “PKB-kinase (spa) Assay 1, % inhibition” value is recorded as 67%. In experiment [2] (Assay 2), the “PKB-kinase (spa) Assay 2, % inhibition” value is 65%.

In the case of “60020-44: Arg-Pro-Arg-Orn-Glu(Gly-5-aminoethylsulfonamide isoquinoline)-Orn-Hol (RPR[Orn]E([Gly-X1])[Orn][hLeu])”, in experiment [1] (Assay 1), the “PKA-kinase Assay 1, % inhibition” value amounted to 95%. The “PKA-kinase Assay 2, % inhibition” value in experiment [1] (Assay 2) stood at 95%. Further, the “PKB-kinase (spa) Assay 1, % inhibition” value in experiment [2] (Assay 1) is 54%. Moreover, in experiment [2] (Assay 2), the “PKB-kinase (spa) Assay 2, % inhibition” value stood at 67%.

In the case of `CCCC[C@H](NC(=O)[C@H](CCCNC(=N)N)NC(=O)[C@@H]1CCCN1C(=O)[C@@H](N)CCCNC(=N)N)C(=O)N[C@@H](CCC(=O)NCCNS(=O)(=O)c1cccc2cnccc12)C(=O)N[C@@H](CO)C(=O)N[C@@H](Cc1ccccc1)C(N)=O` [compound 6128], the pIC50 is 7.00 in experiment [1] (chimeric PTR compounds (peptide conjugated to isoquinoline small molecule), read-out: PKA IC50) and 5.05 in experiment [2] (chimeric PTR compounds (peptide conjugated to isoquinoline small molecule), read-out: PKB IC50).

On to `CCC[C@H](NC(=O)[C@H](CCCNC(=N)N)NC(=O)[C@@H]1CCCN1C(=O)[C@@H](N)CCCNC(=N)N)C(=O)N[C@@H](CO)C(=O)N[C@@H](C)C(=O)N[C@@H](Cc1ccccc1)C(N)=O` [60002-38] (H-RPR[Nva]SAF-NH2; N-terminus and C-terminus assumed), for which, in experiment [1], the IC50 was 80 µM and the “% Inhibition PKA” value was −2%. For the same compound, in experiment [2], the IC50 is 18 µM and the “% Inhibition PKB I” value came to 43%.

For “60020-35: Arg-Pro-Arg-Dap-Glu(Gly-5-aminoethylsulfonamide isoquinoline)-Orn-Phe (RPR[Dap]E([Gly-X1])[Orn]F; not fully specified)”, the “PKA-kinase Assay 1, % inhibition” value in experiment [1] (Assay 1) is on record as 95%. For the same compound, the “PKA-kinase Assay 2, % inhibition” value in experiment [1] (Assay 2) is given as 96%. Further, the “PKB-kinase (spa) Assay 1, % inhibition” value in experiment [2] (Assay 1) amounted to 43%. In addition, the “PKB-kinase (spa) Assay 2, % inhibition” value in experiment [2] (Assay 2) is on record as 56%.

Consider “60005-75 (RPR[Nva]S[GlyNH2][hLeu]) [Compound 60005-75]”, for which the “% Inhibition PKA” value in experiment [1] is recorded as −4%. In experiment [2], the “% Inhibition PKB I” value came out at 70% and the “% Inhibition PKB II” value was determined as 70%.

`CCC[C@H](NC(=O)[C@H](CCCNC(=N)N)NC(=O)[C@@H]1CCCN1C(=O)[C@@H](N)CCCNC(=N)N)C(=O)NCC(=O)N[C@@H](C)C(=O)N[C@@H](CCC(C)C)C(N)=O` [60006-18A] (H-RPR[Nva]GA[hLeu]-NH2; N-terminus and C-terminus assumed): in experiment [1], the IC50 was more than 100 µM and the “% Inhibition PKA” value stood at 11%. In experiment [2], the IC50 worked out at 9.45 µM, the “% Inhibition PKB I” value is recorded as 47% and the “% Inhibition PKB II” value is listed as 52%.

Consider “60005-32 (RPRT[GlyNH2]A[hLeu]) [Compound 60005-32]”, for which, in experiment [1], the “% Inhibition PKA” value is 4%. Further, in experiment [2], the “% Inhibition PKB I” value was found to be 43% and the “% Inhibition PKB II” value was 44%.

“60020-38: Arg-Pro-Arg-Dap-Glu(Gly-5-aminoethylsulfonamide isoquinoline)-Ala-Hol (RPR[Dap]E([Gly-X1])A[hLeu])”: the “PKA-kinase Assay 1, % inhibition” value in experiment [1] (Assay 1) was found to be 98%. Further, the “PKA-kinase Assay 2, % inhibition” value in experiment [1] (Assay 2) was 99%. The “PKB-kinase (spa) Assay 1, % inhibition” value in experiment [2] (Assay 1) was 49%. The “PKB-kinase (spa) Assay 2, % inhibition” value in experiment [2] (Assay 2) is 49%.

For `CCCC[C@H](NC(=O)[C@H](CCCNC(=N)N)NC(=O)[C@@H]1CCCN1C(=O)[C@@H](N)CCCNC(=N)N)C(=O)N[C@@H](CCC(=O)NCC(=O)NCCNS(=O)(=O)c1cccc2cnccc12)C(=O)N[C@@H](CCCN)C(=O)N[C@@H](Cc1ccccc1)C(N)=O` [60020-59] (H-RPR[Nle]E([Gly-Ethylenediamine-Isoquinoline5sulfonyl])[Orn]F-NH2; N-terminus assumed), the inhibition at 1 µM turned out to be 92% in experiment [1] (Assay 1, read-out: PKA-kinase Assay 1, % inhibition of kinase activity); 93% in experiment [1] (Assay 2, read-out: PKA-kinase Assay 2, % inhibition of kinase activity); 62% in experiment [2] (setting [6]); 75% in experiment [2] (setting [7]). The pIC50 in experiment [1] (setting [5]) is 6.70; in experiment [2] (setting [8]), 6.52.

For “60020-34: Arg-Pro-Arg-Dap-Glu(Gly-5-aminoethylsulfonamide isoquinoline)-Dab-Hol (RPR[Dap]E([Gly-X1])[Dab][hLeu])”, the “PKA-kinase Assay 1, % inhibition” value in experiment [1] (Assay 1) stood at 97%. The “PKA-kinase Assay 2, % inhibition” value in experiment [1] (Assay 2) was 98%. In experiment [2] (Assay 1), the “PKB-kinase (spa) Assay 1, % inhibition” value stood at 64%. Further, the “PKB-kinase (spa) Assay 2, % inhibition” value in experiment [2] (Assay 2) is recorded as 65%.

As a reminder, the IC50 is the concentration needed to halve the response being measured. By inhibition is commonly meant the share of the control response that was lost under treatment.
